The assay has as its system C57BL/6 mice treated with DSS. Kind of assay: therapeutic DSS model of inflammatory bowel disease, treatment after 7 days DSS (Examples 5, 13B). Particulars: for body weight change: 50 nmoles/kg, day 11, p<0.05; for colon weight to length ratio: p<0.01. It is filed as in vivo. The method, then:
Following a 7-day acclimation period, the mice were provided with drinking water containing 2.5% DSS for 7 days. Fresh 2.5% DSS water was prepared every 2 days during the 7 day DSS administration. For this therapeutic DSS study, SG-11 used to treat the animals was fused at its N-terminus to a FLAG Tag (DYKDDDDK; SEQ ID NO:32).
On day 7, normal drinking water was restored and i.p. treatments of 50 nmole/kg of SG-11 ([…]) or Gly2-GLP2 (0.2 mg/kg) were initiated. Treatments were administered twice a day (b.i.d.), with a morning and evening dose (every 8 and 16 hours) for six days.
Body weight was measured daily during the morning treatment. The colon tissue was then harvested and length was measured in centimeters and the tissue was weighed. Fecal material was flushed from the colon and residual PBS removed by gently running the colon tissue through a pair of forceps. The colon tissue was then weighed and colon weight to length ratio in mg/mm was determined. Following weight measurements proximal and distal colon tissue was banked for RNA and protein analysis and the remaining tissues was fixed in 10% neutral buffered formalin for histopathology. Statistical analysis was performed by a one-way ANOVA compared to DSS+vehicle for serum 4KDa-FITC translocation, scrum LBP concentrations, colon length, and colon weight to length ratio, while a two-way ANOVA was performed for analysis of body weight. In all analysis, a Fisher's LSD test for multiple comparisons was used. Graphs represent data pooled from two experiments, and are plotted as mean±SEM.
Histopathology analysis was performed on proximal and distal colon tissues from the therapeutic DSS model described above. Proximal (FIG. 13A) and distal (FIG. 13B) colon scores (range 0-4) are presented as well as the total score for the colon which represents the sum of proximal and distal colon scores (Range 0-8) (FIG. 13C). LMA=Loss of mucosal architecture, Edema=Edema, INF=Inflammation, TMI=Transmural inflammation, MH=Mucosal hyperplasia, DYS=Dysplasia. Graphs represent data pooled from two independent experiments, and are plotted as mean±SEM. Statistical analysis was performed by a one-way ANOVA compared to DSS+vehicle followed by a Fisher's LSD test for multiple comparisons.
In the second experiment (Example 13B), mice were provided with drinking water containing 2.5% DSS for 7 days. […] Treatments were administered twice a day (b.i.d.), with a morning and evening dose (every 8 and 16 hours) for 4 days. For both the prophylactic and therapeutic models, fresh 2.5% DSS water was prepared every 2 days during the DSS administration.
At the end of each DSS model study, mice were fasted for 4 hours and then orally gavaged with 600 mg/kg 4KDa dextran labeled with FITC [4KDa-FITC]. One hour after the 4KDa-FITC gavage, mice were euthanized, blood was collected, and FITC signal was measured in serum. […] Data in both graphs are plotted as mean±SEM and each figure represent data from an individual experiment (n=10 per group).
Upon completion of the OSS models above. LBP levels were measured as an inflammation centric readout of barrier function following the protocol detailed in Example 5. Upon completion of both DSS models (Examples 13A and 13B), blood was collected and serum was isolated. LPS binding protein (LBP) levels were measured in serum using a commercially available ELISA Kit (Enzo Lift Sciences).

Where [1] appears, read: Example 5, 50 nmole/kg i.p. b.i.d. six days after 7 days DSS.
The mark [2] stands for this setting: Example 13B, 50 nmole/kg i.p. b.i.d. 4 days after 7 days DSS.

B1: SG-11: Roseburia hominis protein comprising SEQ ID NO:3; tested as SEQ ID NO:5, SEQ ID NO:7 or FLAG-tagged SEQ ID NO:9 (protein, listed as Rosburia hominis)
chain: LEGEESVVYVGKKGVIASLDVETLDQSYYDETELKSYVDAEVEDYTAEHGKNAVKVESLKVEDGVAKLKMKYKTPEDYTAFNGIELYQGKVVASLAAGYVYDGEFARVEEGKVVGAATKQDIYSEDDLKVAIIRANTDVKVDGEICYVSCQNVKLTGKDSVSIRDGYYLETGSVTASVDVTGQESVGTEQLSGTEQMEMTGEPVNADDTEQTEAAAGDGSFETDVYTFIVYK
Turning to B1, under “Example 5”, the “histopathology: inflammation and transmural inflammation scores” value was “no change”; the “histopathology: loss of mucosal architecture score” value is on record as “modest, but significant reduction”. Under setting [1], the body weight entry is on record as “significant improvements”, the colon length entry was “significant improvements” and the “colon weight to length” value is on record as “significant improvements”. Further, the “serum LBP” value (Example 5, 50 nmole/kg i.p. b.i.d. six days after 7 days DSS, FLAG-tagged SG-11) is reported as “no reduction in LBP”. Further, under “Example 5, DSS+vehicle 88%, p<0.0001”, the “frequency of thick colons” value is given as 25%. The colon length result (Example 13B (FIG. 22B)) is “significant increase in the colon length”. In addition, the “serum LBP” value under setting [2] is reported as “no reduction in LBP”. Further, under “Example 13B”, the body weight change result is reported as “statistically improved body weight changes” and the “colon weight to length ratio” value was “significantly improved colon weight to length ratios”.

B2: SG-11V5: variant of SEQ ID NO:7 with N53S, N83S, C147V, C151S (protein)
chain: MLEGEESVVYVGKKGVIASLDVETLDQSYYDETELKSYVDAEVEDYTAEHGKSAVKVESLKVEDGVAKLKMKYKTPEDYTAFSGIELYQGKVVASLAAGYVYDGEFARVEEGKVVGAATKQDIYSEDDLKVAIIRANTDVKVDGEIVYVSSQNVKLTGKDSVSIRDGYYLETGSVTASVDVTGQESVGTEQLSGTEQMEMTGEPVNADDTEQTEAAAGDGSFETDVYTFIVYK
modifications: Artificial variant of SG-11 (N53S, N83S, C147V, C151S)
As to B2, the colon length entry (Example 13B (FIG. 22B)) is reported as “significant increase in the colon length”. Moreover, the “serum LBP” value under setting [2] is on record as “no reduction in LBP”. For the same molecule, under “Example 13B”, the body weight change result is on record as “statistically improved body weight changes” and the “colon weight to length ratio” value is “significantly improved colon weight to length ratios”.

The values are drawn from patent US20210380994A1, “LACTOCOCCUS LACTIS EXPRESSION SYSTEM FOR DELIVERING PROTEINS EFFICACIOUS FOR THE TREATMENT OF EPITHELIAL BARRIER FUNCTION DISORDERS” (Second Genome, Inc., priority 2018, published 2021).
